From article PMC9050887 (2023)

Biological target: T1, GSDMD (Mus musculus, UniProt Q9D8T2)
T1 chain: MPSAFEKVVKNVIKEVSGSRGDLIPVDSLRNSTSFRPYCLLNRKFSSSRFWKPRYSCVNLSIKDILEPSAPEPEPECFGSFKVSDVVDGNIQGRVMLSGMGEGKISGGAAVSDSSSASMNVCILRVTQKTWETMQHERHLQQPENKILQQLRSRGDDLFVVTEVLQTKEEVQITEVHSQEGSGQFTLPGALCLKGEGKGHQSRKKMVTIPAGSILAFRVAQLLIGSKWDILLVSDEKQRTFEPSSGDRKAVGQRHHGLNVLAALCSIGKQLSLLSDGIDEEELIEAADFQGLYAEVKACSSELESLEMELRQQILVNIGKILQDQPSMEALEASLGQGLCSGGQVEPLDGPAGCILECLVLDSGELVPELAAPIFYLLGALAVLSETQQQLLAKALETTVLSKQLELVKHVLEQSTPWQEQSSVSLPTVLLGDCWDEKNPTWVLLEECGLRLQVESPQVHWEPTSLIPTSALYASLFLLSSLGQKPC
Assay: SPR

- Kd: 487 nM
B1: CIRP (protein)
chain: MASDEGKLFVGGLSFDTNEQALEQVFSKYGQISEVVVVKDRETQRSRGFGFVTFENIDDAKDAMMAMNGKSVDGRQIRVDQAGKSSDNRSRGYRGGSAGGRGFFRGGRSRGRGFSRGGGDRGYGGGRFESRSGGYGGSRDYYASRSQGGSYGYRSSGGSYRDSYDSYATHNE
